Measurements as given in PMC10193809, “A small protein coded within the mitochondrial canonical gene nd4 regulates mitochondrial bioenergetics” (BMC Biology, 2023).

Molecular target: the molecule itself
Experiment: cross-linking; 3 µg synthetic MTALTND4 in 20 µl PBS 1x with 0%, 0.5% or 1% paraformaldehyde, 30 °C, 10 min; tricine-SDS-PAGE, Coomassie stain

B1: MTALTND4 (mitochondrial alternative ND4 protein), complete synthetic peptide (peptide)
chain: MRHNYNKLHLPTTNRPKIAHCMLFNQPHSPRSNSHSHPNPLKLHRRSHSHNRPRAYILITILPSKLKLRTHSQSHHNPLSRTSNSTPTNSFLMTSSKPR
notes: M.W. 11,532.06 g/mol as printed in the methods; also called MTALND4; synthetic MTALTND4; source: synthetic peptide (LifeTein; purity verified by HPLC by the supplier)
stoichiometry N: 2
